{"source": "patent US10568344B2", "about": "“Methods of improving animal performance” (Novozymes A/S, priority 2015, dated 2020)", "molecules": {"B1": {"name": "SEQ ID NO: 1: mature amino acid sequence of a wild type GH25 lysozyme from Acremonium alcalophilum with N-terminal SPIRR (protein)", "chain": "SPIRRRIPGFDISGWQPTTDFARAYANGDRFVYIKATEGTTFKSSAFSRQYTGATQNGFIRGAYHFAQPAASSGAAQARYFASNGGGWSKDGITLPGALDIEYNPNGATCYGLSQSAMVNWIEDFVTTYHGITSRWPVIYTTTDWWTQCTGNSNRFANRCPLWIARYASSVGTLPNGWGFYTFWQYNDKYPQGGDSNWFNGDASRLRALANGD", "modifications": "Wild type sequence with N-terminal SPIRR"}}, "key": {"[1]": {"assay": "In vivo broiler trial 2, growth performance", "set-up": "species or system male broiler chickens", "protocol": "No additional enzymes (e.g. phytase) were added to the feed. The experimental diets (Starter and Grower) were based on soybean meal, wheat and rye (12%) as main ingredients (Table 6). The diets were formulated to contain 222 g crude protein and 12.5 MJ/kg MEN for the starter period and 204 g crude protein and 12.7 MJ/kg MEN for the grower period."}, "[2]": {"test_system": "Clostridiales", "assay": "Microbiota analysis of broiler trial 4 (16S rRNA), Clostridiales", "assay_type": "in vivo, chicken", "set-up": "key to Observed shift compared to the control group, Significance: Significant change (+++), padj < 0.05; Numerical change (+)", "details": "50 ppm"}, "[3]": {"test_system": "Micrococcus lysodeikticus ATTC No. 4698", "assay": "Lysozyme activity turbidity assay (optical density drop)", "details": "pH 4"}, "[4]": {"details": "Grower (d 22-36), 6.25 mg/kg feed"}, "[5]": {"details": "Grower (d 22-36), 12.5 mg/kg feed"}, "[6]": {"details": "Grower (d 22-36), 25 mg/kg feed"}, "[7]": {"details": "Starter (d 1-22), 6.25 mg/kg feed"}, "[8]": {"details": "Starter (d 1-22), 12.5 mg/kg feed"}, "[9]": {"details": "Starter (d 1-22), 25 mg/kg feed"}, "[10]": {"details": "Whole period (d 1-36), 6.25 mg/kg feed"}, "[11]": {"details": "Whole period (d 1-36), 12.5 mg/kg feed"}, "[12]": {"details": "Whole period (d 1-36), 25 mg/kg feed"}}, "note": "Marks after values point to notes of the source that are not given here."}
{"molecule": "B1", "values": [{"measurement": "FCR", "setting": "[1]; [4]", "result": "1.753^a"}, {"measurement": "FCR, Relative to C (%)", "setting": "[1]; [4]", "result": 101.9, "unit": "%"}, {"measurement": "Feed intake", "setting": "[1]; [4]", "result": 2705, "unit": "g/b"}, {"measurement": "Feed intake, Relative to C (%)", "setting": "[1]; [4]", "result": 99.1, "unit": "%"}, {"measurement": "Weight gain", "setting": "[1]; [4]", "result": 1545, "unit": "g/b"}, {"measurement": "Weight gain, Relative to C (%)", "setting": "[1]; [4]", "result": 97.4, "unit": "%"}, {"measurement": "FCR", "setting": "[1]; [5]", "result": "1.692^a"}, {"measurement": "FCR, Relative to C (%)", "setting": "[1]; [5]", "result": 98.3, "unit": "%"}, {"measurement": "Feed intake", "setting": "[1]; [5]", "result": 2671, "unit": "g/b"}, {"measurement": "Feed intake, Relative to C (%)", "setting": "[1]; [5]", "result": 97.8, "unit": "%"}, {"measurement": "Weight gain", "setting": "[1]; [5]", "result": 1581, "unit": "g/b"}, {"measurement": "Weight gain, Relative to C (%)", "setting": "[1]; [5]", "result": 99.7, "unit": "%"}, {"measurement": "FCR", "setting": "[1]; [6]", "result": "1.686^a"}, {"measurement": "FCR, Relative to C (%)", "setting": "[1]; [6]", "result": 98, "unit": "%"}, {"measurement": "Feed intake", "setting": "[1]; [6]", "result": 2753, "unit": "g/b"}, {"measurement": "Feed intake, Relative to C (%)", "setting": "[1]; [6]", "result": 100.8, "unit": "%"}, {"measurement": "Weight gain", "setting": "[1]; [6]", "result": 1633, "unit": "g/b"}, {"measurement": "Weight gain, Relative to C (%)", "setting": "[1]; [6]", "result": 102.9, "unit": "%"}, {"measurement": "FCR", "setting": "[1]; [7]", "result": "1.403^ab"}, {"measurement": "FCR, Relative to C (%)", "setting": "[1]; [7]", "result": 101.8, "unit": "%"}, {"measurement": "Feed intake", "setting": "[1]; [7]", "result": "1551^ab g/b"}, {"measurement": "Feed intake, Relative to C (%)", "setting": "[1]; [7]", "result": 105.4, "unit": "%"}, {"measurement": "Weight gain", "setting": "[1]; [7]", "result": 1106, "unit": "g/b"}, {"measurement": "Weight gain, Relative to C (%)", "setting": "[1]; [7]", "result": 103.6, "unit": "%"}, {"measurement": "FCR", "setting": "[1]; [8]", "result": "1.339^b"}, {"measurement": "FCR, Relative to C (%)", "setting": "[1]; [8]", "result": 97.1, "unit": "%"}, {"measurement": "Feed intake", "setting": "[1]; [8]", "result": "1403^d g/b"}, {"measurement": "Feed intake, Relative to C (%)", "setting": "[1]; [8]", "result": 95.4, "unit": "%"}, {"measurement": "Weight gain", "setting": "[1]; [8]", "result": 1049, "unit": "g/b"}, {"measurement": "Weight gain, Relative to C (%)", "setting": "[1]; [8]", "result": 98.3, "unit": "%"}, {"measurement": "FCR", "setting": "[1]; [9]", "result": "1.332^b"}, {"measurement": "FCR, Relative to C (%)", "setting": "[1]; [9]", "result": 96.6, "unit": "%"}, {"measurement": "Feed intake", "setting": "[1]; [9]", "result": "1434^cd g/b"}, {"measurement": "Feed intake, Relative to C (%)", "setting": "[1]; [9]", "result": 97.4, "unit": "%"}, {"measurement": "Weight gain", "setting": "[1]; [9]", "result": 1076, "unit": "g/b"}, {"measurement": "Weight gain, Relative to C (%)", "setting": "[1]; [9]", "result": 100.9, "unit": "%"}, {"measurement": "FCR", "setting": "[1]; [10]", "result": "1.604^a"}, {"measurement": "FCR, Relative to C (%)", "setting": "[1]; [10]", "result": 101.6, "unit": "%"}, {"measurement": "Feed intake", "setting": "[1]; [10]", "result": 4249, "unit": "g/b"}, {"measurement": "Feed intake, Relative to C (%)", "setting": "[1]; [10]", "result": 101.4, "unit": "%"}, {"measurement": "Weight gain", "setting": "[1]; [10]", "result": 2651, "unit": "g/b"}, {"measurement": "Weight gain, Relative to C (%)", "setting": "[1]; [10]", "result": 99.9, "unit": "%"}, {"measurement": "FCR", "setting": "[1]; [11]", "result": "1.548^bc"}, {"measurement": "FCR, Relative to C (%)", "setting": "[1]; [11]", "result": 98.1, "unit": "%"}, {"measurement": "Feed intake", "setting": "[1]; [11]", "result": 4069, "unit": "g/b"}, {"measurement": "Feed intake, Relative to C (%)", "setting": "[1]; [11]", "result": 97.1, "unit": "%"}, {"measurement": "Weight gain", "setting": "[1]; [11]", "result": 2630, "unit": "g/b"}, {"measurement": "Weight gain, Relative to C (%)", "setting": "[1]; [11]", "result": 99.1, "unit": "%"}, {"measurement": "FCR", "setting": "[1]; [12]", "result": "1.543^c"}, {"measurement": "FCR, Relative to C (%)", "setting": "[1]; [12]", "result": 97.8, "unit": "%"}, {"measurement": "Feed intake", "setting": "[1]; [12]", "result": 4181, "unit": "g/b"}, {"measurement": "Feed intake, Relative to C (%)", "setting": "[1]; [12]", "result": 99.8, "unit": "%"}, {"measurement": "Weight gain", "setting": "[1]; [12]", "result": 2709, "unit": "g/b"}, {"measurement": "Weight gain, Relative to C (%)", "setting": "[1]; [12]", "result": 102.1, "unit": "%"}, {"measurement": "Improvement of FCR compared to the control diet", "setting": "[1]; day 1 to day 36, 12.5 mg/kg", "result": 1.9, "unit": "%"}, {"measurement": "Improvement of FCR compared to the control diet", "setting": "[1]; day 1 to day 36, 25 mg/kg", "result": 2.2, "unit": "%"}, {"measurement": "Improvement of weight gain compared to C", "setting": "[1]; day 1 to day 36, 25 mg/kg", "result": 2.0, "unit": "%"}, {"measurement": "Improvement of FCR compared to the control diet", "setting": "[1]; grower period, 25 mg/kg", "result": 2.0, "unit": "%"}, {"measurement": "Improvement of weight gain compared to the control diet", "setting": "[1]; grower period, 25 mg/kg", "result": 2.9, "unit": "%"}, {"measurement": "Improvement of weight gain compared to the control diet", "setting": "[1]; starter period, 6.25 mg/kg", "result": 3.6, "unit": "%"}, {"measurement": "Improvement of FCR compared to the control diet", "setting": "[1]; starter period, 12.5 mg/kg", "result": 2.9, "unit": "%"}, {"measurement": "Improvement of FCR compared to the control diet", "setting": "[1]; starter period, 25 mg/kg", "result": 3.4, "unit": "%"}, {"measurement": "Observed shift compared to the control group, Significance", "setting": "[2]; Order level (Clostridiales)", "result": "+"}, {"measurement": "Clostridiales Change vs control", "setting": "[2]; order level", "result": 5.3792}, {"measurement": "Clostridiales Ratio vs control", "setting": "[2]; order level", "result": 1.1671}, {"measurement": "Clostridiales abundance, Lysozyme treatment", "setting": "[2]; order level, ceca content", "result": 37.5638}, {"measurement": "Lysozyme activity as measured by Optical Density Drop", "setting": "[3]", "result": "+ (pH 4)"}]}
